Data taken from PMC9599533.
Where “and” joins values, the source holds several entries; their conditions need not be identical. Identical values can stand only once.

Columns and labels:
[1] = biological target: Mpa_(C-EXT) (mycobacterial proteasome ATPase Mpa with a GGGGS linker inserted between Thr601 and Glu (M. tuberculosis) (UniProt P9WQN5)); test: cryo-EM structure
[2] = biological target: M. tuberculosis open gate 20S core particle (20SOG CP) (M. tuberculosis) (UniProt P9WHU1); test: cryo-EM structure

Question: How did the stoichiometry N [1] turn out when “Mpa_(C-EXT) (mycobacterial proteasome ATPase Mpa with a GGGGS linker inserted between Thr601 and Glu (from UniProt P9WQN5 1-609) (enzyme)” was run?
Answer: The stoichiometry N was 6.

Question: What about the percent of 20SOG CPs complexed [2] of the same substance?
Answer: The percent of 20SOG CPs complexed was 50% and 40%.
